The star is where a group is joined. FITC = O=C1OC2(c3ccc(O)cc3Oc3cc(O)ccc32)c2ccc(NC(=S)*)cc21
Legend:
Experiment in all cases: fluorescence polarisation
[1] = biological target: FITC-labelled C-terminal peptide of ACE2 (FITC-…-COO-) (human)
[2] = biological target: FITC-labelled ACE2 peptide with the predicted PTB binding motif (FITC-…-NH2) (human)
[3] = biological target: AP2 μ2 (human unless Table 5 states otherwise (cells not shown))
SHANK1 PDZ = biological target: T1, SHANK1 PDZ (human unless Table 5 states otherwise …, UniProt Q9Y566 663-757)
T1 sequence: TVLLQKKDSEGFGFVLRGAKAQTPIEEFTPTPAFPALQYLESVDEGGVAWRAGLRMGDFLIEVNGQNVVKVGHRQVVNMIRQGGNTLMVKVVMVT

## NHERF3 PDZ1 (domain or fragment)
[1]
  Kd: 8 µM

## SNX17 FERM domain (domain or fragment)
[2]
  Kd: 200 to 300 µM

## unphosphorylated ACE2 peptide (cytoplasmic tail region with the predicted AP2 μ2, NCK SH2 and ATG8 binding motifs)
[3]
  Ki: 101 µM

## {FITC}-QNTDDVQTSF-OH [FITC-labelled C-terminal peptide of ACE2 (FITC-QNTDDVQTSF-COO-)]
SHANK1 PDZ
  Kd: 14 µM
